The values below are quoted from earlier work in patent publication US6191103A, “Methods for enhancing thrombolysis in a mammal” (priority 1997, dated 2001).

For this data set the following is noted: in vivo.

As for “tPA: tissue-type plasminogen activator, fibrinolytic agent”, the plasma half-life entry is “around 5 minutes”.
